The text below walks through data of patent publication US6194559.

Data set [1] deals with ABF1 (Arabidopsis thaliana). Briefly: cell_activity. Conditions: yeast lacZ; no activity without ABRE.
Data set [2] deals with ABF2 (Arabidopsis thaliana). Description: cell_activity. Particulars: yeast lacZ.

As for Em1a trimer reporter, in data set [1], the activity (fold over control) was found to be 6. The substance also displayed an activity (fold over background) in data set [2] of 2.
